Experiments:
Abz-LXEXGK(Dnp) peptides = assay: Enzyme specificity assay (percent substrate conversion by HPLC); assay type: biochemical
Experimental: (A, D) For each of eSrtA, eSrtA(2A-9), and eSrtA(4S-9), we incubated an activity matched quantity of enzyme (47.5 nM eSrtA, 450 nM eSrtA(2A-9), 115 nM eSrtA(4S-9)) with 10 μM Abz-LXEXGK(Dnp) (SEQ ID NO: 33) and 100 mM Gly-Gly-Gly peptide as listed for 15 minutes. Percent substrate conversion was monitored by reverse phase HPLC analysis and UV absorbance at 355 nm. […] LPEXG: SEQ ID NO: 34.
Assays to determine eSrtA, eSrtA(2A-9) and eSrtA(4S-9) specificity were performed by preparing 10 μM stocks of Abz-LXEXGK(Dnp) (SEQ ID NO: 75) peptides in 300 mM Tris pH 7.5, 150 mM NaCl, 5 mM CaCl2, 5% v/v DMSO, and 100 mM Gly-Gly-Gly-COOH (GGG). Reactions were performed by adding eSrtA(2A-9) to a final concentration of 450 nM, eSrtA(4S-9) to a final concentration of 115 nM or eSrtA to a final concentration of 47.5 nM and a final volume of 100 μL, then incubating at 22.5° C. for 15 minutes. Reactions were quenched by the addition of 0.2 volumes of 5 M HCl, then were injected onto an analytical reverse-phase Eclipse XDB-C18 HPLC column (4.6×150 mm, 5 μm, Agilent Technologies) and chromatographed using a gradient of 10 to 65% acetonitrile with 0.1% TFA in 0.1% aqueous TFA over 13 minutes. Retention times under these conditions for the Abz-LPETGK(Dnp)-CONH2 (SEQ ID NO: 19) substrate, the released GKDnp peptide, and the Abz-LPETGGG-COOH (SEQ ID NO: 20) product were 12.8, 10.4, and 9.1 min, respectively, while the remaining Abz-LXEXGK(Dnp)-CONH2 (SEQ ID NO: 74) substrates varied in retention time between 9 and 13 minutes. To calculate the percent conversion, the ratio of the integrated areas of the GK(Dnp)-CONH2 and Abz-LPETGK(Dnp)-CONH2 (SEQ ID NO: 19) peptide Abs355 peaks were compared directly. Subsequent determination of kcat/Km and KH were performed as described for in vitro SrtA characterization.

[1] = Materials (surface) functionalization of GGG-PEG 96-well plates; assay type: biochemical; details: Alexa Fluor 488-LAETGG or Alexa Fluor 647-LPESGG, 2 hours
Experimental: FIG. 21A-D show applications of evolved sortases. (A) N- and C-terminal labeling of fibroblast growth factors FGF1 and FGF2. Tandem SUMO-TEV cleavage site-FGF1/2-LPESG-His6 (SEQ ID NO: 27) constructs were treated with eSrtA(4S-9) in the presence of GGG-PEG, then with eSrtA(2A-9) and TEV protease in the presence of Alexa Fluor750-LAETGG (SEQ ID NO: 35) and purified to afford the final conjugates in up to 20% yield (Table 3). The crude reactions were analyzed by SDS-PAGE and scanned for fluorescence at 700 nm. (B) Surface functionalization using eSrtA(2A-9) and eSrtA(4S-9). […] The total fluorescence of the resulting surfaces was measured at 488 nm or 647 nm, then normalized to the fluorescent intensities obtained from the samples containing eSrtA(2A-9)+488-LAETG (SEQ ID NO: 5) or eSrt(4S-9)+647-LPESG (SEQ ID NO: 3). […]
GGG-functionalized substrate was generated by incubating 100 μL of 2 μM biotin-PEG (5K)-GGG in streptavidin coated 96 well microplates (Pierce) for 2 hours at room temperature, and washed three times with TBST buffer (20 mM Tris, 100 mM NaCl, pH 7.5 with 0.05% Tween 20). […] Total fluorescent intensities were measured at 488 nm and 647 nm using a Biotek Synergy NEO HTS Multi Mode microplate reader. […]

| Molecule | difference in transpeptidation of LPESG over LPETG (Abz-LXEXGK(Dnp) peptides; FIG. 20A, 10 μM peptide, 100 mM GGG, 15 minutes) | activity on the substrates LPEAG, LPECG and LPESG (Abz-LXEXGK(Dnp) peptides; position 4 substrate profile, FIGS. 20A-B) | modification of GGG-PEG-functionalized surfaces [1] | reduced activity on the next most active substrates, LSETG and LRETG, versus LAETG (Abz-LXEXGK(Dnp) peptides; position 2 substrate profile, FIG. 20E) |
| --- | --- | --- | --- | --- |
| eSrtA(4S-9): P94R, N98D, S102C, A104V, A118T, F122A, K134R, F144L, D160N, D165A, I182V, E189F, K190E, K196T (protein) QAKPQIPKDKSKVAGYIEIPDADIKEPVYPGPATREQLDRGVCFVEENESLDDQNISITGHTAIDRPNYQFTNLRAAKKGSMVYLKVGNETRKYKMTSIRNVKPTAVEVLDEQKGKDKQLTLVTCDDYNFETGVWETRKIFVATEVK | approximately 40 fold | significant activity | significant modification only on its cognate substrate | – |
| eSrtA(2A-9): P94R, S102C, A104H, E105D, K138P, K152I, N160K, K162H, T164N, D165A, K173E, I182V, K190E, T196S (protein) QAKPQIPKDKSKVAGYIEIPDADIKEPVYPGPATREQLNRGVCFHDENESLDDQNISIAGHTFIDRPNYQFTNLKAAKPGSMVYFKVGNETRIYKMTSIRKVHPNAVEVLDEQEGKDKQLTLVTCDDYNEETGVWESRKIFVATEVK | – | – | significant modification only on its cognate substrate | > 20 fold |

Source: patent publication US10202593B2, “Evolved sortases and uses thereof” (President and Fellows of Harvard College, priority 2013, dated 2019)
